A short description of the data set: soluble on expression in E. coli; label from the status in PepcDB or PDB records.
“MAHHHHHHMSESPMCLFIACSTRDNTSREYIYTILKNRLLGSHVCIDTNILDVPTNLKFCSFDDLLKCADDLQKYDSYAYGCLKKIEKLAKEYDENIELKIIYQRQHINIDQYIRRFTWDDAKYPRNRSLTDTIDVMVNNITKLSDEIHIKSSMLNDLKEKKKKDIPKTDTNNFFLKNLNEILTPQTVSQADFMETEYLTTLIAYIPKNSVDEWLASYEKFSQYVVPRSTEQFKGLVDKDGNTLWKVYVFKKFAESFKEAAKLKKFVVKSFKYDEQKYNDVMESRTKVEAEIIRQETFLRRMCLAAFSDIFSAFIHINILRVFCESVLRFGVPPNFASFSIRINGESKEKKVRKKLYDIFSSTDSIGKNYIKRSDENDEEIYPYVSVSFKI”: the “soluble on expression in E. coli” value was “not soluble”.
As to “MAHHHHHHMSFHPRDAFILHQEYIQRLNEGDEVDTSAEQKVELNLQRHADSESAATVTFSHEDHTLGNPLRHVIMEDPSVTSAGYAIPHPLEAKMQLHVQSSEYAVETVAKGLERLAAICDETLKSFNACVEAISAEDPEGH”, the “soluble on expression in E. coli” value is recorded as “not soluble”.
For “MAHHHHHHMSLADPHPLEAATTPASSLSNSIRLALLPASMKLPRDKSSSPELLAVFLPPDFCCMSVKSSTQNSSLFSSGISTVSPGRGCSVMEWRAIMQPVLLSLFKHWSVAAIRPGLFRRFCVGDVLFARERKLANSTPSAPCVNFPHRSTRVGAPRALRADCSSSSSSCKERKRHEWQDSRASESQEASPLLETSLPLLLWSSG” the value was “soluble”; for “MAHHHHHHMSLNAAAAADERSRKEMDRFQVERMAGQGTFGTVQLGKEKSTGMSVAIKKVIQDPRFRNRELQIMQDLAVLHHPNIVQLQSYFYTLGERDRRDIYLNVVMEYVPDTLHRCCRNYYRRQVAPPPILIKVFLFQLIRSIGCLHLPSVNVCHRDIKPHNVLVNEADGTLKLCDFGSAKKLSPSEPNVAYICSRYYRAPELIFGNQHYTTAVDIWSVGCIFAEMMLGEPIFRGDNSAGQLHEIVRVLGCPSREVLRKLNPSHTDVDLYNSKGIPWSNVFSDHSLKDAKEAYDLLSALLQYLPEERMKPYEALCHPYFDELHDPATKLPNNKDLPEDLFRFLPNEIEVMSEAQKAKLVRK”, “soluble”.
To “MAHHHHHHMSLPPRGPSSPPAKCPQECVASSCVSLPITPPCIARRVLPLFPPPGWHMYDAYRNCFQYRPDVQRKLVKAVQRERHLRHLAAPHAGDAATSSAEVSAAVLRKEVMEMDSTCCCCALDAAHLFATPEDMPTPPLPLSRCELHEVLLALSPRWQSYPWRLCFDTASDGFSLSSLYRCMEAVDAKQSQVKTVAFGLFFVHSREDAALTNAQTASPVDSLSASSTSPSYALWPPTAGAPHSFCEAHHSSSRRYGAAHGALQHSVLGCFTPEVPCLGRHAANIYFGSTDTFVFRLDQLSCAPSRGAWMATDVEKKQSSQRAQQQEQQQQHGKAAEPHTCAPATSTRAVGAAPAYGYAKLALADDDIAGVPVPMPSRVTIEHAGDSKHAVDKSMVHSSPLLPPSEVPPLLNPSPLRAAVVSSSNAAAMSSVHGAPDIVVPSPRGRWHRLLRPVQPARVVPHAPLLEKFTWCGNMHNRKFIVCNPHFFAIGGGQSGAALYVDEALQYGTSSTWCETFNAPCLFGPRMGSADVSSVPSLVQSYMSGNDSPSGGPARPTSGLPHVEFAISRVVWFSVTEDKRTLRMMSAADASLPSAEAHRCGCGRFSCASASHTTTLDPMSTEKSTAPSPPPASTFLHQCDLLPFAAPM” belongs “not soluble”; to “MAHHHHHHMSLTKGSKAAQDVISFLHTVGRLKVTARQGWVENQICSPESVSDHMYRMSLMCMMCPDTSLNRDRMVKMALCHDTGESIIGDISPAMKVPKEVKKQQESQAVQSLCKLVSSSPNTTFSKELGDLFEEYEAQETAESHFVKDMDLLEMVVQAHSYESANPGKDLGSFFRSGANIHHPWARAIYETLLETRPYLAYKEEQAKEASSI”, “soluble”.
Take “MAHHHHHHMSRLMPHYSKGKTAFLCVDLQEAFSKRIENFANCVFVANRLARLHEVVPENTKYIVTEHYPKGLGRIVPEITLPKTAHLIEKTRFSCVVPQVEELLEDVDNAVVFGIEGHACILQTVADLLDMNKRVFLPKDGLGSQKKTDFKAAIKLMSSWGPNCEITTSESILLQMTKDAMDPNFKRISKLLKEEPPIPL”: the “soluble on expression in E. coli” value is given as “soluble”.
To “MAHHHHHHMSRLVMTAPPSLPPFLLLSGASSPPPPPISHTHTHTHTHTHTAMASLAHLSTPLPSEPSAAAPPPAASAPAGALHLERFLESVLKQNLDTVLSQRDELYATVAQCAQLRWLMDDMQALSRYHSFIEASTAAETAAAVPLSALSPVASGSPNASLPLMSKRAQADAYKPPQKNKVLVDLGNHFYTQGVVKDAGVLFMNMGCGVVLPMSLDEAREFLRKKEAVVRRMIMNKSKEALRIKYRIRLVTEAIARLHERHLGL” belongs “not soluble”.
For “MAHHHHHHMSTNSAKILSRVREAMKLHSINALIVPSSDPHNSEYVMDSYKCRGFLTNFNGSAGTCLITMEEAYLWTDGRYWLEAGHCLYPEWQLMRDGHPGVPSLEDFVRLNLQPDLLVGMNDNLATVAEWERRRKAINLVPIPEIVRPLMPQNSDAKAEMLSIRPEQFCGQTREEKVMALVEELKGQKCEAMILSALDEVAWLTNLRGSDVPYNPVFYSYALVRSAPDPTVALFVDSAKVSSPVEAELTQSGRSVVSVSLHPYEALEDYVRALPAGTAFLVDEYQTSQRLYSLLESCKMKVNRVKCGPAQRLKAVKNAVEIEGFRRCHVRDGVALTRYLAWLHDMIVVKGDTTITECSGADVVEGFRREQEHFVQLSFPTISSVGPNGAVVHYTPPKEGSATIVPDQLYLVDSGAQYLDGTTDVTRTVCFNPPSDEERQAYTLVLKGHLALHNAVWPTGTTGHRLDALARVHLWRYGLDYAHGTGHGVGSFLNVHEGPQGIGYRPTPTEATLAAGMIMSNEPGYYKAGKYGIRIENLEVIVRAPTRHSQEGFLTFEALTMVPLCRDLIDVSMLTADEVRLVNDYHRTVRDALTPHLRRVNDSCALAYVERHTAELCALEGGC” the value was “soluble”.
To “MAHHHHHHMSVVTTLSGVFEADLEATLMGYIHEAIGNAVNKGLQYARSTAQDRVLKMLIAYRRVCTSNATSSLLMPSRLRLIPLFVLSFMKADALVEGTTVPIDDRVQKLFLLMTIPMHQCVTYLYPTLYAVHHLLSEPTSGVIDPETGHCVLPGWQQLIFDSITTDGVYVLCDEQARIVYLWIGSSVVPEVSLELFGTTNALDVGRTVFFENFGERLKNVLYTCLMRDDGMRRFVILHEKDRGEEAFFRQFKEENEGGSMGYDQLLVHLHREVKKSIE” belongs “not soluble”.
As for “MAHHHHHHMSWQGPRVLVVGENQWEREAVSRALLNLAVRHGSPYGICYVDLDVAMPMVGCPGTVSAAFVEEPVTAPEDFGVMMPLTFFHGTASVTSATRKRYLDLCVCAAQAATSLGFANSKFEAGGFLIHSLSPSTEIQHDVLSDVLSIFAVTHVVVTGADRELEKFLYNAVLGRTVHFVRLPKLAGVQSPSSAGAEQRRRAQLERYFFGTPRTPLVPVRGVARMSELVLLHAETFEPLSWREVPDLGLAAVVWADTAASAAEANVAGFVALLEVGKQFVSFLAPSGGELPKPFLVVSPSLHLPRELVMPLPVT”, the “soluble on expression in E. coli” value was “not soluble”.
For “MAHHHHHHMTDTTKGALKRSNTLFLSDAEQFVFDFGGSAGGRAVSPGSSHGSGGQPGEGDGEKGIEETDLANGRTGVVTPFSERERTAPVAPLDAEEVQRYFDKALKGGRRILLENVPLDEAIEKFQLGLRRYEEWLCNQANSRNRGDSSKSRGDPLNEGYRGKPGDVARDAKDRKRPRL”, the “soluble on expression in E. coli” value is on record as “not soluble”.
To “MAHHHHHHMTETVLRLGPQEYAHLTNLNTNTTELILGPLNRPVASHESVALPPTKFVVVPPTQYCLIANPHRTAVDPTTGIAQPVRDAYGQVQVRSGEEEYRWHVPPFPLYPEEAVVKLEDLKVLSARAALQIQVLAAYNVPACSASDSMPSPVRREAGERYSSAAPAPTTLALRSTSRRR” belongs “soluble”; to “MAHHHHHHMTVHLLWIINQSGQLIAKSSFTAPENIGELGAKPDLQLTMSSILFSTYGMSQELTPNANPVDSAGMTLVECEEHNIHIYETPTLVKFVLVSDSRTRECNALFRELHSLYVEYVMKNPFHIVDEGGIGQPIRIAAFTGAVKRAVDRYHAAGVSNATRK”, “not soluble”.
To “MAHHHHHHMVGARFFFLNLPTSLSSASSLNRNKITSNRLPTDPSTPQWRDGYKLRKAVDDSSTQSTHRLPIYFCNAQRRVSSHSGRKTLLLATICIYDVGALDSFPIVLLVPLLNFIKSGLNEVDGSADCVDFSEYQCLTAPFPTTFRISLCPRLRFGGQFFFFCTHSRGDKNSRSILSHQRLAKFVPLFHTWYNEQDIS” belongs “not soluble”; to “MAHHHHHHMVKETGLYDELGISPDATEPQIRSAYRRKALQYHPDKNSGDPAAAEKFKKVAEAYEILSDAERRKQYDTFGRNGPGGAAGGSGGVPGGGFGSSFGPGTDPMDIFSSFFGFASGGGPGASRQQRPAKPSFILVVLQCSLEELYCGTVKVLQVRRRRLCPSCHGHGTSSGRPSPVCPQCKGNKTVTKALNFGGLTAYQQCRCDHCEGLGKLPIRLPCARCGPVYDAHQRAPLSGTRKPDPLPRGVVVDEKMIKVSIEPGTEDSDALNYVGQGDELPGFGAVGDVLVVIEQLPHPHYHRLNSTDLLLSNCRVPLGCLFRDAFSIPIELLDGRVLRLATPLREGNVPHFLFDSQHVFVVDGEGMPLKGRKGGGAAADANHDDSGAADDVAYRKKGKLYLCVNVVFPSSLTPAQVDIIAKALGGDHERDPAATGEDAGRVVTLQPHHSPAPSWYTVDTEGNAWYQPNGPATAKKKRKATSTTA”, “not soluble”; to “MAHHHHHHMVSVDTSTRRFLEMFCDFDAKRCKLCNETFLQWHIHANGIPHAGREGMLLELVRPYCGTPDELIEMWWQRLNSCAAFHRIPGLSHDNPHERKRRLLYLLKVLKDRGILVETFNVSDNQSTNSARSWEFERLEFVGDNVVKYVLNNIISCAFPPHEGGTKGKMTCFQFVMDGNDGLARGYDHLDLQQLASSPRVVSKFKSDIVETLFAELQMYLWSTQHDIGTCPLVFPFTKDIYTLRALVQHVLYELGIELFLYHIRHINGMLQRVMRENHLQFVKADSALKPRAGARTGSLGVSTRRGDWSDDDDDYDCPQSYGTPAVSAPTAALMKVRSQRTHVQGTGAALFFASTNYDNFKRVVPIGGLLPRPFARQDLSVIPNHMPHLRSDGAMTRRMRRVGNAGWSTLHATATALTTLESVADGLALSAETTPRVGSEPVRLSVPRLKDEELIPELI”, “not soluble”.
As to “MAHHHHHHMVWKGSRERGVQEYRKKSKGNKPTKGEKVSKKGVSSSRQPKQRELLSAKQQQQQNRKNEELRAALAGAFSTEVSSSNAGPAFDGYGKGSPTDRLQFGYAPAVAAEAVAYHSTISTDAWIEARRTRYRTAIVEQKKLRRPNCEPITSILKLQGHWRSTELFEREVHGSHAVAQDKVDDILDTFVSRQRVA”, the “soluble on expression in E. coli” value is recorded as “not soluble”.
To “MAHHHHHHMWEETYVRACANLGVQPRNEVLAAVGGTAQLCGNTFANFENRLTDEELAALCETCRQISLVAVVRLPYNNITCRGATALAKAMKEGFSTLQYLDLSYNSINEEGANAIAAAATNYEMLSTLLLNGNPIGGGSGPCLKTLLESENTQLVTLDLEQTDQGLKSLVHIARGLVHNTTLTTLNLGRPLMTNPMDVSYVVEHLSLALKENRTLRFLGLSHFNMADCDLALLLSTLRDSAVTTLSLKGNKLSQASGEPLAQLLAHRPDFLSLDVTANRLRDVGALAIAAVIANHPGLRELQIGFNTIGGVGISALAQSLAANASITTLKLWGNDLTDESVRDLYAIRGRFESMEVTDFSFYVVDGCPMVARE” belongs “not soluble”.

The record behind these values is the DeepSol protein solubility set.
